Data published in patent US20230151089A1.
pEC50: −log10 of the molar value.

Legend:
[1] = biological target: alpha-synuclein oligomers (UniProt P37840); test: ELISA (Example 3), reference antibody 26F1
[2] = biological target: alpha-synuclein oligomers (UniProt P37840); test: ELISA, alpha-Syn oligomer coated plate, exp 1
[3] = biological target: alpha-synuclein oligomers (UniProt P37840); test: ELISA, alpha-Syn oligomer coated plate, exp 2
[4] = biological target: alpha-synuclein oligomers (UniProt P37840); test: ELISA, alpha-Syn oligomer coated plate, exp 3
[5] = biological target: alpha-synuclein oligomers (UniProt P37840); test: ELISA, ratio of EC50 values, reference alpha-Syn fibrils (FIG. 3)
alpha-synuclein fibrils = alpha-synuclein fibrils (UniProt P37840); test: ELISA on antigen-coated plate, antibody titrated in tenfold steps, OD 450-630 nm
alpha-synuclein monomers = alpha-synuclein monomers (UniProt P37840); test: as above
[6] = biological target: alpha-synuclein oligomers (UniProt P37840); test: as above

| fold weaker binding affinity to alpha-Syn oligomers than 26F1 [1] [fold] | pEC50 [2] | pEC50 [3] | pEC50 [4] | binding affinity ratio alpha-Syn oligomers:alpha-Syn fibrils [5] | EC50 (read off the curve) (alpha-synuclein fibrils) [nM] | EC50 (read off the curve) (alpha-synuclein monomers) [nM] | EC50 (read off the curve) [6] [nM] | Substance |
| --- | --- | --- | --- | --- | --- | --- | --- | --- |
| > 2 | 9.70 | 9.22 | 9.22 |  |  |  |  | 5G4 antibody |
|  | 10.22 | 10.22 | 9.85 | 1 | 0.02 | 0.02 | 0.02 | MJFR14 antibody |
